In patent US20220332848A1 (published 2022):

Assays:
human CTLA-4 = human CTLA-4 (human, UniProt P16410 36-223); test: FACS binding CHO-K1 cells expressing human CTLA-4
CD47 = CD47 (UniProt Q08722 19-323); test: FACS
CD47, sequence (Q08722 19-323): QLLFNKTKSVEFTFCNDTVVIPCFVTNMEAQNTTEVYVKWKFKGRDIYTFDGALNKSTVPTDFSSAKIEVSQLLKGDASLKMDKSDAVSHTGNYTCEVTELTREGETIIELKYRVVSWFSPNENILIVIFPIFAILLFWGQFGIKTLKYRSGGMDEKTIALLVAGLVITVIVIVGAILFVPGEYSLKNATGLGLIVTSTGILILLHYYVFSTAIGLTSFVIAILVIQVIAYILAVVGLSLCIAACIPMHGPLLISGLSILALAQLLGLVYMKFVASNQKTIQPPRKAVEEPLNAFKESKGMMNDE

human CTLA-4, sequence (P16410 36-223): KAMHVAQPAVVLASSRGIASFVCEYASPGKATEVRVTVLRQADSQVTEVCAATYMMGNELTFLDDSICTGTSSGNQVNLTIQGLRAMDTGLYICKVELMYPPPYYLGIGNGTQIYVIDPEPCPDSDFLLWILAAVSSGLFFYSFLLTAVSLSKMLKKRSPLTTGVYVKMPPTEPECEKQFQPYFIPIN

Row | EC50 (human CTLA-4) [nM] | EC50 (CD47) [nM] | Binder
1 | 3.59 | – | bispecific antibody CTLA4-G9-LN (bispecific antibody) light: EVQLVESGGGLVQPGGSLRLSCAASGYTYSRHCLGWFRQAPGKGREAVSTIDSDGSTSYADSVKGRFTISRDNAKNTLYLQMNSLRPEDTAVYYCAIGPNPRYCSGAPNTRGAEHYFGYWGQGTLVTVSSGGGGSGGGSEIVLTQSPATLSLSPGERATLSCRASENVGTYISWYQQKPGQAPRLLIYGASNRYTGIPARFSGSGSGTDFTLTISSLEPEDFAVYYCGESYGHLYTFGGGTKVEIKRTVAAPSVFIFPPSDEQLKSGTASVVCLLNNFYPREAKVQWKVDNALQSGNSQESVTEQDSKDSTYSLSSTLTLSKADYEKHKVYACEVTHQGLSSPVTKSFNRGEC heavy: not shown
2 | 3.61 | 2.3 | bispecific antibody CTLA4-E-HN (bispecific antibody) heavy: not shown light: EIVLTQSPATLSLSPGERATLSCRASENVGTYISWYQQKPGQAPRLLIYGASNRYTGIPARFSGSGSGTDFTLTISSLEPEDFAVYYCGESYGHLYTFGGGTKVEIKRTVAAPSVFIFPPSDEQLKSGTASVVCLLNNFYPREAKVQWKVDNALQSGNSQESVTEQDSKDSTYSLSSTLTLSKADYEKHKVYACEVTHQGLSSPVTKSFNRGEC
3 | 2.93 | 1.81 | bispecific antibody CTLA4-G15-HN (bispecific antibody) heavy: not shown light: EIVLTQSPATLSLSPGERATLSCRASENVGTYISWYQQKPGQAPRLLIYGASNRYTGIPARFSGSGSGTDFTLTISSLEPEDFAVYYCGESYGHLYTFGGGTKVEIKRTVAAPSVFIFPPSDEQLKSGTASVVCLLNNFYPREAKVQWKVDNALQSGNSQESVTEQDSKDSTYSLSSTLTLSKADYEKHKVYACEVTHQGLSSPVTKSFNRGEC
4 | 6.22 | 1.63 | bispecific antibody CTLA4-G15-HC (bispecific antibody) heavy: not shown light: EIVLTQSPATLSLSPGERATLSCRASENVGTYISWYQQKPGQAPRLLIYGASNRYTGIPARFSGSGSGTDFTLTISSLEPEDFAVYYCGESYGHLYTFGGGTKVEIKRTVAAPSVFIFPPSDEQLKSGTASVVCLLNNFYPREAKVQWKVDNALQSGNSQESVTEQDSKDSTYSLSSTLTLSKADYEKHKVYACEVTHQGLSSPVTKSFNRGEC
5 | 7.05 | 1.57 | bispecific antibody CTLA4-E-HC (bispecific antibody) heavy: not shown light: EIVLTQSPATLSLSPGERATLSCRASENVGTYISWYQQKPGQAPRLLIYGASNRYTGIPARFSGSGSGTDFTLTISSLEPEDFAVYYCGESYGHLYTFGGGTKVEIKRTVAAPSVFIFPPSDEQLKSGTASVVCLLNNFYPREAKVQWKVDNALQSGNSQESVTEQDSKDSTYSLSSTLTLSKADYEKHKVYACEVTHQGLSSPVTKSFNRGEC
6 | ~3.2 | 0.905 | anti-CD47 monoclonal antibody (mAb) (antibody, V domains shown) VH: EVQLVQSGAEVKKPGSSVKVSCKASGYSFTHHWIHWVRQAPGQGLEWMGMIDASDSETRLSQKFKDRVTITADKSTSTAYMELSSLRSEDTAVYYCARLGRYYFDYWGQGTTVTVSS VL: EIVLTQSPATLSLSPGERATLSCRASENVGTYISWYQQKPGQAPRLLIYGASNRYTGIPARFSGSGSGTDFTLTISSLEPEDFAVYYCGESYGHLYTFGGGTKVEIKR
